Experimental data published in US20120164123.

How the values were obtained:
[1] = system: human neutrophil peptide-1 (HNP-1)
[2] = system: mono-ADP-ribosylated HNP-1
Sequence of mono-ADP-ribosylated HNP-1 (chain, as listed by the source): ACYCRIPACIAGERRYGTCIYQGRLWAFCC

Sequence of human neutrophil peptide-1 (HNP-1) (chain, as listed by the source): as above

In the case of manganese-activated arginase, the “ornithine formation by arginase (amino acid analysis and MS)” value [1] is reported as “Identification of the products by amino acid analysis and MS identified ornithine only in the reaction that contained free arginine” and the “ornithine formation by arginase (amino acid analysis and MS)” value [2] is reported as “Identification of the products by amino acid analysis and MS identified ornithine only in the reaction that contained free arginine”.
